# Measurements taken from the RNAGym collection of RNA variant scans (doi:10.1021/acssynbio.7b00057).
# B1: Pistol ribozyme (parent)
# chain: GGGUCGUUGUUCCAUAAUCGCGUGGAUAUGGCACGCAAGUUUCUACCGGGCACCGUAAAUGUCCGACUGGAGCCGUUCGGGCGGCUAUAAACAGACCUCAGGCCCGAAGCGUGGCGGCACCUGCCGCCGGUGGUAAAAAAGAUCGGAAGAGCACACGUCU
# Variants of: B1
# Experiment: aptazyme ON/OFF ratio, guanine; higher = stronger switching; co-transcriptional cleavage with and without guanine
row,Variant,aptazyme ON/OFF ratio
1,U7A U8G G9A U11A C12U,1.38
2,U7A U8G G9C U10A U11G,1.9
3,U7A U8G G9C U10A U11A,1.89
4,U7A U8G G9C U10A U11C,1.04
5,U7A U8G G9C C12U,1.88
6,U7A U8G G9C C12G,1.29
7,U7A U8G G9C C12A,1.78
8,U7A U8G G9C U10G C12G C13A,1.3
9,U7A U8G G9C U10G C12G C13U,1.44
10,U7A U8G G9C U10G C12G C13G,1.17
11,U7A U8G G9C U10A U11G C12G C13G,1.72
12,U7A U8G G9C U10A U11G C12G C13A,1.14
13,U7A U8G G9C U10A U11G C12G C13U,1.25
14,U7A U8G G9A U10G U11C,1.01
15,U7A U8G G9A U10G U11A,1.06
16,U7A U8G G9A U10G U11G,1.39
17,U7A U8G G9C U10G C12U C13U,1.38
18,U7A U8G G9C U10G C12U C13G,1.23
19,U7A U8G G9C U10G C12U C13A,1.48
20,U7A U8G G9A U10G U11C C12G C13G,1.23
21,U7A U8G G9A U10G U11C C12G C13A,1.4
22,U7A U8G G9A U10G U11C C12G C13U,1.22
23,U7A U8G G9C U10A U11A C13G,1.15
24,U7A U8G G9C U10A U11A C13U,1.26

row,Variant,aptazyme ON/OFF ratio
1,U7A U8G G9C U10A U11A C13A,1.15
2,U7A U8G G9A U10G U11A C12G C13A,1.15
3,U7A U8G G9A U10G U11A C12G C13G,1.11
4,U7A U8G G9A U10G U11A C12G C13U,1.22
5,U7A U8G G9A U10G U11G C12G C13U,1.53
6,U7A U8G G9A U10G U11G C12G C13G,1.68
7,U7A U8G G9A U10G U11G C12G C13A,0.971
8,U7A U8G G9A U10C U11G C13G,1.3
9,U7A U8G G9A U10C U11G C13A,1.19
10,U7A U8G G9A U10C U11G C13U,1.25
11,U7A U8G G9C U10A U11G C12U C13U,1.35
12,U7A U8G G9C U10A U11G C12U C13G,1.26
13,U7A U8G G9C U10A U11G C12U C13A,1.21
14,U7A U8G G9A U11A C12U C13G,1.28
15,U7A U8G G9A U11A C12U C13A,1.37
16,U7A U8G G9A U11A C12U C13U,1.32
17,U7A U8G G9C U10A C12G,1.43
18,U7A U8G G9C U10A C12U,1.36
19,U7A U8G G9C U10A C12A,1.4
20,U7A U8G G9A U10G U11G C13A,1.06
21,U7A U8G G9A U10G U11G C13U,1.22
22,U7A U8G G9A U10G U11G C13G,1.42
23,U7A U8G G9C U10A C13G,1.15
24,U7A U8G G9C U10A C13U,1.3

row,Variant,aptazyme ON/OFF ratio
1,U7A U8G G9C U10A C13A,1.19
2,U7A U8G G9A U11A,1.7
3,U7A U8G G9A U11G,1.64
4,U7A U8G G9A U11C,1.33
5,U7A U8G G9C U10A U11A C12G C13U,1.38
6,U7A U8G G9C U10A U11A C12G C13A,1.15
7,U7A U8G G9C U10A U11A C12G C13G,1.36
8,U7A U8G G9C U10C U11A C12G,1.23
9,U7A U8G G9C U10C U11A C12U,1.13
10,U7A U8G G9C U10C U11A C12A,1.21
11,U7A U8G G9A U10G U11A C12A C13U,1.11
12,U7A U8G G9A U10G U11A C12A C13A,1.19
13,U7A U8G G9A U10G U11A C12A C13G,1.41
14,U7A U8G G9A U10C U11G C12U C13A,1.21
15,U7A U8G G9A U10C U11G C12U C13G,1.33
16,U7A U8G G9A U10C U11G C12U C13U,1.23
17,U7A U8G G9A U10C U11C C12A C13G,1.22
18,U7A U8G G9A U10C U11C C12A C13U,1.04
19,U7A U8G G9A U10C U11C C12A C13A,1.09
20,U7A U8G G9A U10G C12U C13G,1.36
21,U7A U8G G9A U10G C12U C13A,1.43
22,U7A U8G G9A U10G C12U C13U,1.24
23,U7A U8G G9A U10C U11A C12U C13U,1.1
24,U7A U8G G9A U10C U11A C12U C13G,1.06

row,Variant,aptazyme ON/OFF ratio
1,U7A U8G G9A U10C U11A C12U C13A,1.11
2,U7A U8G G9C U10A U11G C12A C13A,1.2
3,U7A U8G G9C U10A U11G C12A C13G,1.18
4,U7A U8G G9C U10A U11G C12A C13U,1.16
5,U7A U8G G9C U10C U11A C12U C13A,1.13
6,U7A U8G G9C U10C U11A C12U C13G,1.18
7,U7A U8G G9C U10C U11A C12U C13U,1.2
8,U7A U8G G9C C13A,1.47
9,U7A U8G G9C C13G,1.11
10,U7A U8G G9C C13U,1.42
11,U7A U8G G9A U11A C13A,1.24
12,U7A U8G G9A U11A C13G,1.21
13,U7A U8G G9A U11A C13U,1.55
14,U7A U8G G9A U10C C12U,1.23
15,U7A U8G G9A U10C C12A,1.25
16,U7A U8G G9A U10C C12G,1.35
17,U7A U8G G9C U10C U11G C12G,1.16
18,U7A U8G G9C U10C U11G C12U,1.03
19,U7A U8G G9C U10C U11G C12A,1.06
20,U7A U8G G9A U10C U11C C13G,1.03
21,U7A U8G G9A U10C U11C C13U,1.03
22,U7A U8G G9A U10C U11C C13A,1.07
23,U7A U8G G9A U11C C13G,1.09
24,U7A U8G G9A U11C C13A,1.12

row,Variant,aptazyme ON/OFF ratio
1,U7A U8G G9A U11C C13U,1.2
2,U7A U8G G9C U10C C12G C13U,1.46
3,U7A U8G G9C U10C C12G C13G,1.2
4,U7A U8G G9C U10C C12G C13A,1.23
5,U7A U8G G9C U10A U11A C12A C13G,1.35
6,U7A U8G G9C U10A U11A C12A C13U,1.38
7,U7A U8G G9C U10A U11A C12A C13A,1.5
8,U7A U8G G9A U10G U11C C13A,1.12
9,U7A U8G G9A U10G U11C C13U,1.06
10,U7A U8G G9A U10G U11C C13G,1.1
11,U7A U8G G9A U10C C12A C13A,1.05
12,U7A U8G G9A U10C C12A C13U,1.12
13,U7A U8G G9A U10C C12A C13G,1.14
14,U7A U8G G9A U10C U11C C12G C13U,1.04
15,U7A U8G G9A U10C U11C C12G C13G,1.09
16,U7A U8G G9A U10C U11C C12G C13A,1.11
17,U7A U8G G9A U10G U11C C12U C13A,1.32
18,U7A U8G G9A U10G U11C C12U C13G,1.09
19,U7A U8G G9A U10G U11C C12U C13U,1.14
20,U7A U8G G9C U10C U11C C12G C13G,1.08
21,U7A U8G G9C U10C U11C C12G C13A,1.29
22,U7A U8G G9C U10C U11C C12G C13U,1.07
23,U7A U8G G9A U10G U11C C12U,1.16
24,U7A U8G G9A U10G U11C C12G,1.38

row,Variant,aptazyme ON/OFF ratio
1,U7A U8G G9A U10G U11C C12A,1.45
2,U7A U8G G9C C12U C13U,1.21
3,U7A U8G G9C C12U C13G,1.22
4,U7A U8G G9C C12U C13A,1.4
5,U7A U8G G9A U10G C12G C13G,1.17
6,U7A U8G G9A U10G C12G C13U,1.33
7,U7A U8G G9A U10G C12G C13A,1.5
8,U7A U8G G9C U10C C12U C13A,1.14
9,U7A U8G G9C U10C C12U C13G,1.17
10,U7A U8G G9C U10C C12U C13U,1.38
11,U7A U8G G9C U10C U11A C12A C13G,1.1
12,U7A U8G G9C U10C U11A C12A C13U,1.18
13,U7A U8G G9C U10C U11A C12A C13A,1.17
14,U7A U8G G9A U10C C12U C13U,1.27
15,U7A U8G G9A U10C C12U C13A,1.17
16,U7A U8G G9A U10C C12U C13G,1.13
17,U7A U8G G9A U10G U11A C12A,1.28
18,U7A U8G G9A U10G U11A C12G,1.28
19,U7A U8G G9A U10G U11A C12U,1.12
20,U7A U8G G9A U10C U11A C12A C13G,1.11
21,U7A U8G G9A U10C U11A C12A C13A,1.12
22,U7A U8G G9A U10C U11A C12A C13U,1.19
23,U7A U8G G9C U10A U11A C12A,1.5
24,U7A U8G G9C U10A U11A C12U,1.44

row,Variant,aptazyme ON/OFF ratio
1,U7A U8G G9C U10A U11A C12G,1.36
2,U7A U8G G9C U10C U11A C13U,1.22
3,U7A U8G G9C U10C U11A C13A,1.16
4,U7A U8G G9C U10C U11A C13G,1.22
5,U7A U8G G9A U11C C12G C13A,1.32
6,U7A U8G G9A U11C C12G C13G,1.4
7,U7A U8G G9A U11C C12G C13U,1.14
8,U7A U8G G9C U10C U11G,1.26
9,U7A U8G G9C U10C U11C,0.976
10,U7A U8G G9C U10C U11A,1.03
11,U7A U8G G9C U10A U11C C13A,1.04
12,U7A U8G G9C U10A U11C C13U,1.04
13,U7A U8G G9C U10A U11C C13G,1.04
14,U7A U8G G9C,1.97
15,U7A U8G G9A U10C U11G C12A,1.12
16,U7A U8G G9A U10C U11G C12G,1.33
17,U7A U8G G9A U10C U11G C12U,1.26
18,U7A U8G G9A U11G C12A,1.14
19,U7A U8G G9A U11G C12G,1.32
20,U7A U8G G9A U11G C12U,1.36
21,U7A U8G G9A U11C C12U C13G,0.973
22,U7A U8G G9A U11C C12U C13U,1.46
23,U7A U8G G9A U11C C12U C13A,1.07
